The experiment concerns the target T1, human PDGFRb (human, UniProt P09619 33-531).
T1 chain: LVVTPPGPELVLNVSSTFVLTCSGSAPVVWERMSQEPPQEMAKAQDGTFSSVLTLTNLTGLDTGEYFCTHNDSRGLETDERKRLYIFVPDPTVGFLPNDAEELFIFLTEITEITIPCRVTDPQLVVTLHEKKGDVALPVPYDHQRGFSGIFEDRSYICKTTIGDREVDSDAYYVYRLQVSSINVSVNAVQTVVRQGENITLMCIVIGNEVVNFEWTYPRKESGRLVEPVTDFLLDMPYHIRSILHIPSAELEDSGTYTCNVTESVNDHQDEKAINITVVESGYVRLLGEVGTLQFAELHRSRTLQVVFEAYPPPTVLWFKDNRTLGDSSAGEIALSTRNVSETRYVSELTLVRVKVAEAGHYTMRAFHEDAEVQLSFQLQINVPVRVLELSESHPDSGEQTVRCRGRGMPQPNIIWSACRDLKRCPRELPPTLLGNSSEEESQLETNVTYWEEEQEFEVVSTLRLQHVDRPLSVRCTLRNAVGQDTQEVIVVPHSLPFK
The experiment in a line: solution binding affinity (35S Met labeled).

B1: scFv XB2202-A4 (scFv, V domains shown)
VH: QVQLVQSGAEVKKPGSSVRVSCKASGGTFSRHAISWVRQAPGQGLEWIGGILPILKTPNYAQRFQGRVTINADESTSTVYMEMSSLRSEDTAVYYCATHGGDRSYWGQGTLVTVSS
VL: DVVMTQSPSSLSASVGDRVTITCQASQDISNWLNWYQQKPGKAPKLLIYEASNLETGVPSRFSGSGSGTDFTFTISSLQPEDIATYYCQQYNNVLRTFGQGTKVEIK
As for B1, binding was put at a Kd of 0.03 nM.

The values above are taken from patent publication US20140113831A1 (published 2014).
